Assay results reported in the supplement of paper PMC9112550, “Optimization of the antimicrobial peptide Bac7 by deep mutational scanning” (BMC Biology, 2022).

tested on: Escherichia coli TOP10; experiment: shrunken log2 fold change of peptide-encoding DNA abundance (4.5 h post-induction vs induction); higher = less antimicrobial activity (less host growth inhibition); details: time post-induction: 4.5 h; library: site-saturation at positions 5, 18, 19, 20
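Also: peptides expressed intracellularly from a pBAD plasmid library in pooled LB shake-flask culture, induced with 0.3% L-arabinose, DNA abundance read by NGS, three biological replicates, DESeq2 with apeglm shrinkage.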

Sequence	shrunken log2 fold change
RRIRKRPPRLPRPRPRPKLAPRP	1.58
RRIRTRPPRLPRPRPRPGCSPRP	0.0133
RRIRYRPPRLPRPRPRPQRTPRP	-0.335
RRIRTRPPRLPRPRPRPQKKPRP	0.0215
RRIRSRPPRLPRPRPRPHTVPRP	-0.218
RRIRFRPPRLPRPRPRPLCLPRP	-0.431
RRIRYRPPRLPRPRPRPGWAPRP	0.0172
RRIRFRPPRLPRPRPRPKPSPRP	0.462
RRIRERPPRLPRPRPRPYHDPRP	-0.114
RRIRCRPPRLPRPRPRPYQVPRP	-0.829
RRIRSRPPRLPRPRPRPVPAPRP	0.122
RRIRKRPPRLPRPRPRPFYYPRP	-0.587
RRIRARPPRLPRPRPRPQFLPRP	-0.265
RRIRNRPPRLPRPRPRPGSQPRP	0.0302
RRIRARPPRLPRPRPRPTECPRP	0.0171
RRIRMRPPRLPRPRPRPDMMPRP	0.187
RRIRIRPPRLPRPRPRPGVAPRP	0.276
RRIRARPPRLPRPRPRPGPSPRP	0.6
RRIRARPPRLPRPRPRPKDVPRP	0.0479
RRIRWRPPRLPRPRPRPIDTPRP	0.00736
RRIRDRPPRLPRPRPRPRHIPRP	-0.25
RRIRLRPPRLPRPRPRPVHRPRP	0.119
RRIRHRPPRLPRPRPRPRREPRP	0.217
RRIRCRPPRLPRPRPRPPYTPRP	-0.343
RRIRKRPPRLPRPRPRPRQWPRP	0.263

Sequence	shrunken log2 fold change
RRIRIRPPRLPRPRPRPDTYPRP	-0.347
RRIRMRPPRLPRPRPRPPDTPRP	1.84
RRIRDRPPRLPRPRPRPLSLPRP	0.0554
RRIRGRPPRLPRPRPRPQNDPRP	0.128
RRIRTRPPRLPRPRPRPINSPRP	-0.875
RRIRTRPPRLPRPRPRPRDKPRP	-0.18
RRIRYRPPRLPRPRPRPHSIPRP	-0.311
RRIRQRPPRLPRPRPRPERLPRP	-0.0028
RRIRARPPRLPRPRPRPVHYPRP	-0.198
RRIRYRPPRLPRPRPRPWTFPRP	-0.225
RRIRTRPPRLPRPRPRPMLLPRP	-0.0757
RRIRIRPPRLPRPRPRPPFMPRP	-0.256
RRIRVRPPRLPRPRPRPESPPRP	0.232
RRIRVRPPRLPRPRPRPEGKPRP	0.217
RRIRVRPPRLPRPRPRPNHWPRP	0.203
RRIRQRPPRLPRPRPRPINTPRP	-0.129
RRIRFRPPRLPRPRPRPKNDPRP	-0.407
RRIRSRPPRLPRPRPRPAKWPRP	0.235
RRIRHRPPRLPRPRPRPTFCPRP	-0.186
RRIRIRPPRLPRPRPRPSTKPRP	-1.14
RRIRTRPPRLPRPRPRPTTAPRP	0.0738
RRIRERPPRLPRPRPRPSSQPRP	0.123
RRIRMRPPRLPRPRPRPISHPRP	-0.018
RRIRNRPPRLPRPRPRPKFLPRP	0.0309
RRIRARPPRLPRPRPRPCVAPRP	0.715

Sequence	shrunken log2 fold change
RRIRPRPPRLPRPRPRPRIFPRP	-0.0669
RRIRMRPPRLPRPRPRPCWCPRP	-7.44e-05
RRIRQRPPRLPRPRPRPYVLPRP	-0.512
RRIRQRPPRLPRPRPRPPENPRP	0.0912
RRIRKRPPRLPRPRPRPARCPRP	0.782
RRIRDRPPRLPRPRPRPDTFPRP	-0.0268
RRIRYRPPRLPRPRPRPMNHPRP	-0.262
RRIRIRPPRLPRPRPRPNRIPRP	-0.481
RRIRFRPPRLPRPRPRPHCCPRP	-0.166
RRIRMRPPRLPRPRPRPPVFPRP	0.704
RRIRVRPPRLPRPRPRPPKWPRP	0.133
RRIRKRPPRLPRPRPRPVTFPRP	-0.126
RRIRGRPPRLPRPRPRPQCEPRP	1.31
RRIRPRPPRLPRPRPRPTMCPRP	-0.0327
RRIRSRPPRLPRPRPRPGMLPRP	-0.0372
RRIRQRPPRLPRPRPRPMIPPRP	-0.0361
RRIRERPPRLPRPRPRPGIPPRP	-0.421
RRIRFRPPRLPRPRPRPPRTPRP	0.579
RRIRNRPPRLPRPRPRPQERPRP	0.0235
RRIRIRPPRLPRPRPRPWYPPRP	-0.238
RRIRLRPPRLPRPRPRPWGHPRP	0.105
RRIRARPPRLPRPRPRPLAKPRP	0.835
RRIRIRPPRLPRPRPRPNMKPRP	-0.625
RRIRWRPPRLPRPRPRPWYYPRP	-0.321
RRIRIRPPRLPRPRPRPTPGPRP	0.131
